Source: the supplement of paper PMC10724198
± gives the standard deviation of the averaged measurements.

System: Saccharomyces cerevisiae
Assay: protein stability index of tFT-peptide fusion (C-terminal peptide) (PSI (0-1 scale)); higher = more stable (slower turnover)
Conditions: genetic background: wild type; temperature: 30 C
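Also: PSI is a weighted mean of sequencing reads over stability bins, variants kept only with over 10 reads, mCherry proximal and sfGFP distal, peptide attached via GGGS linker.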

| Sequence | protein stability index |
| --- | --- |
| SRSGVKKDIRKL | 0.657 ± 0.059 |
| YPSLPTLCSKQP | 0.643 ± 0.084 |
| LLPPPPPASPAI | 0.696 ± 0.01 |
| HDGIQVSVRRRT | 0.67 ± 0.011 |
| PPFPPPPPPPLS | 0.714 ± 0.05 |
| FSFLFSFFFSFL | 0.55971 ± 7.1e-07 |
| LPITTPLPPLDP | 0.688 ± 0.02 |
| TPLVLTLLTRRP | 0.709 ± 0.054 |
| RCGCLRVPTGGG | 0.679 ± 0.075 |
| VESGVLCPGVGA | 0.634 ± 0.02 |
| VQGFYPVSAEGG | 0.674 ± 0.022 |
| FHSRGVASPQPP | 0.682 ± 0.018 |
| VGELCGVGGRGG | 0.68 ± 0.13 |
| PSHLNAPTTAPP | 0.701 ± 0.038 |
| FGRVRFCFRMRS | 0.671 ± 0.025 |
| PPSHIPASGTKR | 0.716 ± 0.041 |
| RLTYVGDYELYV | 0.686 ± 0.053 |
| EKRINLKKRGKT | 0.669 ± 0.064 |
| SFERPAQAHALA | 0.698 ± 0.012 |
| ERTDEKTAEKER | 0.7012 ± 0.0049 |
| RLVTSCSAAGSG | 0.671 ± 0.007 |
| RSLWGPRVGVFA | 0.594 ± 0.014 |
| LPIARLPPPPPR | 0.707 ± 0.1 |
| AVRSILYRVATR | 0.729 ± 0.06 |
| VVSYVHTQPPLS | 0.684 ± 0.073 |
| HADFRTLLASRS | 0.67 ± 0.018 |

| Sequence | protein stability index |
| --- | --- |
| FCSQNLQMNQLS | 0.6 ± 0.041 |
| CVLPVSVIWVLR | 0.575 ± 0.018 |
| VCRCYILSFPQR | 0.688 ± 0.028 |
| VLGDSASFWSCP | 0.765 ± 0.15 |
| GGEVPFRLCRLW | 0.6914 ± 0.0019 |
| PPPPPPTPAPPP | 0.711 ± 0.044 |
| DKCRWWRHGVWR | 0.687 ± 0.019 |
| AVLTDKKGRVRS | 0.703 ± 0.036 |
| PSPPIPALSFST | 0.684 ± 0.03 |
| KCVDSREKITMD | 0.672 ± 0.072 |
| QPTRADLEAPPR | 0.6858 ± 0.0065 |
| APAPSLPTSGEL | 0.701 ± 0.092 |
| SVHRRRSLLTPL | 0.706 ± 0.05 |
| IISQLEQSFISP | 0.7402 ± 0.0056 |
| LFICETRLDSRY | 0.744 ± 0.13 |
| RRSTIHSRLFGA | 0.6786 ± 0.0041 |
| RCEWRGSCWGGE | 0.653 ± 0.062 |
| SLASWLCVFSWD | 0.673 ± 0.027 |
| CGSVEVVVVRGS | 0.587 ± 0.054 |
| SRSAPPPSPGMT | 0.746 ± 0.052 |
| FRPLPPPPPSPT | 0.672 ± 0.052 |
| HTTMVGVAEGWV | 0.686 ± 0.049 |
| RGGGEGGKEDSQ | 0.682 ± 0.047 |
| HRLWAGWGLEQC | 0.712 ± 0.013 |
| MGSGRGVITTKG | 0.704 ± 0.0077 |
| EREKERNKNGKY | 0.671 ± 0.013 |

| Sequence | protein stability index |
| --- | --- |
| FPSCSAGLHLNL | 0.7521 ± 0.0034 |
| HHPSPPSPSPAC | 0.698 ± 0.018 |
| ASFMSPPSAPLA | 0.6953 ± 0.0047 |
| DYRLWFRGLPSL | 0.697 ± 0.035 |
| TRFLRCACCFVC | 0.565 ± 0.036 |
| SPRLPPSPPPDL | 0.628 ± 0.023 |
| NTTITKMYTKEW | 0.714 ± 0.05 |
| PVVKGAAGSAQR | 0.725 ± 0.074 |
| STSWDDLLYHSG | 0.716 ± 0.059 |
| PCPLPSPHPPPR | 0.717 ± 0.046 |
| RHPALPGPPGSS | 0.698 ± 0.13 |
| ARKCPLLYGPMA | 0.662 ± 0.04 |
| LPSPALSRSDPT | 0.729 ± 0.031 |
| PCHPRPPPASPP | 0.692 ± 0.096 |
| TKRLLPPRTVAI | 0.696 ± 0.066 |
| TIDACFHSDWGC | 0.782 ± 0.11 |
| ISEGSSRFRTSL | 0.6542 ± 0.0025 |
| WPPPPPYSPFSL | 0.737 ± 0.02 |
| VFVFRLYFCGCC | 0.495 ± 0.015 |
| GVVERGRRAGEG | 0.659 ± 0.028 |
| PSPPPPSRLLPP | 0.689 ± 0.025 |
| FDITGAGLDSSF | 0.7904 ± 0.0053 |
| FSRCRRGLVLCL | 0.479 ± 0.045 |
| TNGVNHIDAHGQ | 0.645 ± 0.018 |
| NVLSGIDKRLTI | 0.71 ± 0.053 |
| EQQTPIKKNKQR | 0.826 ± 0.036 |

| Sequence | protein stability index |
| --- | --- |
| RFYLLAEDGSST | 0.703 ± 0.017 |
| GWSFDLVSAQWG | 0.817 ± 0.02 |
| ERKHIISKGMNN | 0.608 ± 0.041 |
| LNSSGPGYGFPG | 0.743 ± 0.05 |
| PNPHGRPSIPAL | 0.65 ± 0.039 |
| GVWRCGVVGLSL | 0.665 ± 0.038 |
| HSPSSLCHPSTG | 0.727 ± 0.098 |
| GLGGRFSWVDGV | 0.756 ± 0.012 |
| GVPGQFVSENII | 0.679 ± 0.027 |
| PRSSVLPPCPSL | 0.707 ± 0.025 |
| PPPTRAPPPKPG | 0.621 ± 0.028 |
| QSKFNKFPIVET | 0.656 ± 0.046 |
| LGARELTFALLR | 0.649 ± 0.0039 |
| SPSSSPSPFPVP | 0.731 ± 0.063 |
| TSLAPLPAPLRR | 0.725 ± 0.031 |
| IRHSTRTRPSSV | 0.745 ± 0.03 |
| RSRLPPPPLLFP | 0.702 ± 0.048 |
| CLFPPTARHSFP | 0.778 ± 0.036 |
| SVKHTFAHSVNS | 0.6442 ± 0.0018 |
| SIPAPLAPLWGL | 0.627 ± 0.055 |
| GDVRLWMRGIER | 0.803 ± 0.077 |
| VDHRFLWALSSF | 0.751 ± 0.043 |
| EFSWGGLAGSFG | 0.68 ± 0.024 |
